Measurements taken from US20090186842, “Methods and compositions for inhibition of viral replication” (published 2009).
Changes are numbered by the printed parent chain.

T1: TIARa (rTIAR) (Mus musculus, UniProt P70318 P70318:1-392)
T1 sequence: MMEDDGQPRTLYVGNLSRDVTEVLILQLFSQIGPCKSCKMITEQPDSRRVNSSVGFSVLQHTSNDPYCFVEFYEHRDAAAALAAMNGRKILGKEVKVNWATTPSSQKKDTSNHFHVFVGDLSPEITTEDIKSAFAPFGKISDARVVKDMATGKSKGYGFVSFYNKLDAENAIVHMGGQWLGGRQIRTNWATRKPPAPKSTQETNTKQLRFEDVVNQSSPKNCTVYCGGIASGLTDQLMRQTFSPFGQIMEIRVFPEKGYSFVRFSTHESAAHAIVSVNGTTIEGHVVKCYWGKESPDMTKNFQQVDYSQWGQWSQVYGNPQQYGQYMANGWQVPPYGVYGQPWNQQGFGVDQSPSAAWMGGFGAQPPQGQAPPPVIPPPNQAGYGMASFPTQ

T2: GST-TIA-1 RRM3 (UniProt P31483 P31483:214-286)
T2 sequence: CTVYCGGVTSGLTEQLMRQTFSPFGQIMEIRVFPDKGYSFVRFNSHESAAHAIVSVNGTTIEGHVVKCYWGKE

T3: GST-TIA-1 RRM1 (UniProt P31483 P31483:7-83)
T3 sequence: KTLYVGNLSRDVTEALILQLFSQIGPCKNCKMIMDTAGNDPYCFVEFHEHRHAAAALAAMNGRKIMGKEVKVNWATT

T4: GST-TIAR RRM1 (UniProt Q01085 Q01085:9-85)
T4 sequence: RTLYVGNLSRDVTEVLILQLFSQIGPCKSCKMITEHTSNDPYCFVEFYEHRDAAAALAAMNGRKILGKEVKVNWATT

T5: GST-TIAR RRM3 (UniProt Q01085 Q01085:205-277)
T5 sequence: T2 sequence with V8I, T9A, E14D, D35E, N44S, S45T

T6: GST-TIAR RRM2 (UniProt Q01085 Q01085:97-175)
T6 sequence: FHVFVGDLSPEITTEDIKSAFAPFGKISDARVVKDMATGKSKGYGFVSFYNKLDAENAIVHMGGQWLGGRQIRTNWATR

T7: GST-TIA-1 RRM2 (UniProt P31483 P31483:106-184)
T7 sequence: T6 sequence with S19A, K26R, Y50F, L53W, V60Q, H61Q

B1: WNV3'(-)SL RNA (ssRNA)
RNA: CAGCUCGCACCGUGUUAAUUGUUGUUAAUCCUCACAAACACUACUAAGUUUGUCAGCUCACACAGGCGAACUACU
B2: WNV 3'(-)SL RNA with 5' CCC (ssRNA)
RNA: CCCCAGCUCGCACCGUGUUAAUUGUUGUUAAUCCUCACAAACACUACUAAGUUUGUCAGCUCACACAGGCGAACUACU

Key:
TIARa (rTIAR) = target: T1, TIARa (rTIAR); experiment: EMSA; 5-90 nM protein, 0.2 nM RNA, 1 mM MgCl2, 30 mM KCl, RT; conditions: tags: C-terminal His6; label: 32P; stem-loop; AU-rich loops L1, L2, L3
GST-TIA-1 RRM3 = target: T2, GST-TIA-1 RRM3; experiment: EMSA; 500 nM protein; conditions: tags: GST fusion; label: 32P; stem-loop
GST-TIA-1 RRM1 = target: T3, GST-TIA-1 RRM1; experiment: EMSA; 500 nM protein; conditions: tags: GST fusion; label: 32P; stem-loop
GST-TIAR RRM1 = target: T4, GST-TIAR RRM1; experiment: EMSA; 200 nM protein; conditions: tags: GST fusion; label: 32P; stem-loop
GST-TIAR RRM3 = target: T5, GST-TIAR RRM3; experiment: EMSA; 200 nM protein; conditions: tags: GST fusion; label: 32P; stem-loop
GST-TIAR RRM2 = target: T6, GST-TIAR RRM2; experiment: EMSA; SD 5 nM, n=1.2; conditions: tags: GST fusion; label: 32P; stem-loop
GST-TIA-1 RRM2 = target: T7, GST-TIA-1 RRM2; experiment: EMSA; SD 15 nM, n=1.1; conditions: tags: GST fusion; label: 32P; stem-loop

Binder	binding result (TIARa (rTIAR))	binding result (GST-TIA-1 RRM3)	binding result (GST-TIA-1 RRM1)	binding result (GST-TIAR RRM1)	binding result (GST-TIAR RRM3)	Kd (GST-TIAR RRM2) [nM]	Kd (GST-TIA-1 RRM2) [nM]
B1	binds						
B2		no binding	no binding	no binding	no binding	15	112
